Reference: patent USRE46585 (LABORATOIRE FRANCAIS DU FRACTIONNEMENT ET DES …, dated 2017)
Residue numbers refer to the chain shown, from its start. Like-named read-outs stand apart in the source and are kept apart here. Values belong to the binder of their own block, whether it stands above or below them.

Key:
FcRn-p3 fusion protein [1] = target: T1, FcRn-p3 fusion protein (human, UniProt P55899 24-297; P61769 21-119); test: phage ELISA pH6
T1 construct: baculovirus expressed; coated on ELISA wells; not shown: amino terminal part of bacteriophage p3 protein and CVDE protein

FcRn-p3 fusion protein [2] = target: T1, FcRn-p3 fusion protein; test: phage ELISA pH6; remark: listed apart in the source
FcRn-p3 fusion protein [3] = target: T1, FcRn-p3 fusion protein; test: phage ELISA pH6 (est.)
FcRn-p3 fusion protein [4] = target: T1, FcRn-p3 fusion protein; test: phage ELISA pH6 (est.); remark: listed apart in the source
FcRn-p3 fusion protein [5] = target: T1, FcRn-p3 fusion protein; test: phage ELISA pH6 (est.); remark: listed apart in the source
[6] = target: T2, recombinant soluble human FcRn (human, UniProt P55899 24-297; P61769 21-119); test: SPR pH6, immobilized FcRn, steady state
T2 construct: amine-coupled to the SPR chip

FcRn-p3 fusion protein [7] = target: T1, FcRn-p3 fusion protein; test: ELISA pH6, soluble Fc on coated FcRn-p3
FcRn-p3 fusion protein [8] = target: T1, FcRn-p3 fusion protein; test: ELISA pH6, soluble Fc on coated FcRn-p3; remark: listed apart in the source
[9] = target: T2, recombinant soluble human FcRn; test: SPR pH6, immobilized FcRn, steady state; remark: listed apart in the source
FcRn-p3 fusion protein [10] = target: T1, FcRn-p3 fusion protein; test: phage ELISA pH6; remark: listed apart in the source
FcRn-p3 fusion protein [11] = target: T1, FcRn-p3 fusion protein; test: phage ELISA pH6; remark: listed apart in the source

B1: C6A_69 (other)
chain: CPPCPAPELLGGPSVFLFPPKPKDTLMISRTPEVTCVVVDVSHEDPEVKFNWYVDGVEVHNAKTKPREEQYNSTYRVVSVLAVLHQDWLDGKEYKCKVSNKALPVPIEKTISKAKGQPREPQVYTLPPSRDELTKNQVSLTCLVKGFYPSDIAVEWVSNGQPETNYKTTPPVLDSDGSFFLYSKLTVDKSRWQQGNVFSCSVMHEALHYHYTQKSLSLSPGK
notes: EU numbering
Ratio/Fc-H (FcRn-p3 fusion protein [1]): 8.9 fold
Ratio/Fc-H (FcRn-p3 fusion protein [2]): 8.9 fold
Ratio/FWT (FcRn-p3 fusion protein [3]): 28.4 fold
Ratio/Fc-WT (FcRn-p3 fusion protein [4]): 28.4 fold
phage-ELISA ratio/WT (FcRn-p3 fusion protein [5]): 28.4 fold

B3: T5A_94 (soluble recombinant Fc polypeptide) (other)
chain: B1 chain with V39E, A82T, D90N, V105A, A153T, V157E, T164N, P171L, Y209N
notes: EU numbering; E. coli periplasmic expression; not shown: C-terminal 6xHis tag and V5 tag
EC50 (FcRn-p3 fusion protein [7]): 166 nM
Kd [6]: 13.7 nM

B4: C6A_72 (soluble recombinant Fc polypeptide) (other)
chain: B1 chain with T25A, A82T, D90N, V105A, V157E, T164K
notes: as for B3
EC50 (FcRn-p3 fusion protein [7]): 7.8 nM
ELISA ratio/Fc-WT (Fc-WT EC50 / variant EC50) (FcRn-p3 fusion protein [7]): 59 fold
Kd [6]: 12.4 nM
SPR Ratio/Fc-WT (Fc-WT Kd / variant Kd) [6]: 2.4 fold

B7: C6A_74 (soluble recombinant Fc polypeptide) (other)
chain: B1 chain with V34I, A82T, V105A, V157E, T164N
notes: as for B3
EC50 (FcRn-p3 fusion protein [7]): 7.3 nM
Kd [6]: 5.9 nM

B9: C6A_72 (other)
chain: B1 chain with T25A, A82T, D90N, V105A, V157E, T164K
notes: EU numbering
Ratio/Fc-H (FcRn-p3 fusion protein [1]): 8 fold
Ratio/Fc-H (FcRn-p3 fusion protein [2]): 8 fold
Ratio/FWT (FcRn-p3 fusion protein [3]): 25.7 fold
Ratio/Fc-WT (FcRn-p3 fusion protein [4]): 25.7 fold
phage-ELISA ratio/WT (FcRn-p3 fusion protein [5]): 25.7 fold

B10: S3A_07 (soluble recombinant Fc polypeptide) (other)
chain: B1 chain with V39E, A82T, D90N, V105A, A153V, V157G, T164N, Y209N
notes: as for B3
Fc-rec-ELISA Ratio/WT (FcRn-p3 fusion protein [8]): 25.3 fold
SPR Ratio/Fc-WT (Fc-WT Kd / variant Kd) [9]: 5.2 fold

B11: T5A_78 (soluble recombinant Fc polypeptide) (other)
chain: B1 chain with V39E, A82T, D90N, V105A, V157E, Q161R, T164N, P171L, Y209S, K214R
notes: as for B3
Kd [6]: 12.4 nM

B12: S3A_07 (other)
chain: B1 chain with V39E, A82T, D90N, V105A, A153V, V157G, T164N, Y209N
notes: EU numbering
Ratio/Fc-WT (FcRn-p3 fusion protein [10]): 3.5 fold
phage-ELISA Ratio/Fc-WT (FcRn-p3 fusion protein [11]): 3.5 fold

Results, then the binder that gave them:

Kd [6]: 15.4 nM
B2: T5A_58 (soluble recombinant Fc polypeptide) (other)
chain: B1 chain with F16L, V39E, A82P, D90N, V105A, A153V, V157E, T164N, H208R, Y209N
notes: as for B3

Ratio/Fc-H (FcRn-p3 fusion protein [1]): 4.6 fold
Ratio/Fc-H (FcRn-p3 fusion protein [2]): 4.6 fold
Ratio/FWT (FcRn-p3 fusion protein [3]): 14.9 fold
Ratio/Fc-WT (FcRn-p3 fusion protein [4]): 14.9 fold
phage-ELISA ratio/WT (FcRn-p3 fusion protein [5]): 14.9 fold
B5: T5A_81 (other)
chain: B1 chain with V39E, A82T, D90N, V105A, A153V, V157E, T164N, R191K, Y209N
notes: EU numbering

EC50 (FcRn-p3 fusion protein [7]): 3.7 nM
ELISA ratio/Fc-WT (Fc-WT EC50 / variant EC50) (FcRn-p3 fusion protein [7]): 124 fold
Kd [6]: 7.2 nM
SPR Ratio/Fc-WT (Fc-WT Kd / variant Kd) [6]: 4.2 fold
B6: C6A_69 (soluble recombinant Fc polypeptide) (other)
chain: B1 chain
notes: as for B3

EC50 (FcRn-p3 fusion protein [7]): 145 nM
ELISA ratio/Fc-WT (Fc-WT EC50 / variant EC50) (FcRn-p3 fusion protein [7]): 3 fold
Kd [6]: 22.7 nM
SPR Ratio/Fc-WT (Fc-WT Kd / variant Kd) [6]: 1.3 fold
B8: T5A_81 (soluble recombinant Fc polypeptide) (other)
chain: B1 chain with V39E, A82T, D90N, V105A, A153V, V157E, T164N, R191K, Y209N
notes: as for B3
